Laboratory results from PMC7994366, “LRRK2-phosphorylated Rab10 sequesters Myosin Va with RILPL2 during ciliogenesis blockade” (Life Science Alliance, 2021).

Columns and labels:
[1] = molecular target: LRRK2-phosphorylated Rab10 (pRab10) (human (endogenous in HEK293T)) (UniProt P61026)
[2] = molecular target: His6 Myosin Va GTD (1,464–1,855) (UniProt Q9Y4I1); assay: MST; Monolith NT.115; RED-NHS labelled His6-MyoVa GTD fixed at 100 nM, 16 serial dilutions of the unlabelled Rab/Mst3 reaction mixture (+ATP phosphorylated 2 h at 27°C; -ATP control); 50 mM Hepes pH 7.5, 5% glycerol, 150 mM NaCl, 5 mM MgCl2, 0.1 mM TCEP, GTP, 6 μM BSA, 0.01% Tween-20; 30 min in the dark at 25°C; Mst3 kinase present
[3] = molecular target: T1, His6 Myosin Va GTD (1,464–1,855) (UniProt Q9Y4I1 1464-1855, labeled with RED-NHS 2nd Generation (amine reactive) dye (NT-647)); assay: MST; Rab8A phosphorylated by Mst3
T1 chain: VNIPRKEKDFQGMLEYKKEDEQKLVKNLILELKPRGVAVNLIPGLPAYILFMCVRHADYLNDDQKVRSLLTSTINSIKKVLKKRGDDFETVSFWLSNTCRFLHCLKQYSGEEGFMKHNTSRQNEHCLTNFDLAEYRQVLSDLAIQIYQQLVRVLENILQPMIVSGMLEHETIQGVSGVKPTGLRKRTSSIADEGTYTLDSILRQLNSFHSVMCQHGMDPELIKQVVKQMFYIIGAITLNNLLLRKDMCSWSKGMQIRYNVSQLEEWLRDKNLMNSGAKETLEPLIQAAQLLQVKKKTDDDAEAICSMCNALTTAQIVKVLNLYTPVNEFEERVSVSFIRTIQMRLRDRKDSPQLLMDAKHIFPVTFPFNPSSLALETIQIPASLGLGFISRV

[4] = molecular target: T2, His6 Myosin Va GTD (1,464–1,855) (UniProt Q9Y4I1 1464-1855, labeled with RED-NHS 2nd Generation (amine reactive) dye (NT-647)); assay: MST; Monolith NT.115; RED-NHS labelled His6-MyoVa GTD fixed at 100 nM, 16 serial dilutions of the unlabelled Rab/Mst3 reaction mixture (+ATP phosphorylated 2 h at 27°C; -ATP control); 50 mM Hepes pH 7.5, 5% glycerol, 150 mM NaCl, 5 mM MgCl2, 0.1 mM TCEP, GTP, 6 μM BSA, 0.01% Tween-20; 30 min in the dark at 25°C; Mst3 kinase present; settings: both partners purified
T2 construct: Myosin Va globular tail domain, residues 1,464-1,855; bacterial expression plasmid a gift from Amir Khan; purified as described by Berndsen et al 2019 and Waschbüsch et al 2020; the limits differ from those of the mCherry construct m3 (1,421-1,880, mouse); also called His6-MyoVa GTD; purified MyoVa GTD; source: E. coli BL21 (DE3 pLys), purified (Ni-NTA, Superdex-75)

[5] = molecular target: T1, His6 Myosin Va GTD (1,464–1,855); assay: MST; unphosphorylated Rab8A
[6] = molecular target: T1, His6 Myosin Va GTD (1,464–1,855); assay: MST; unphosphorylated Rab10

full-length MyoVa mCherry (natural protein)
FLIP in HeLa cells expressing R1441G LRRK2: half-time of fluorescence loss of MyoVa mCherry over the pericentriolar region of interest (adjacent cytoplasm t1/2 = 83 s; retention ameliorated by MLi-2) [1]: 4.53 min

His6 Rab10-Q63L (1–181) phosphorylated in vitro by Mst3 (from UniProt P61026 1-181) (domain or fragment)
Kd [2]: 0.475 µM

MyoVa GTD-mCherry (1,421–1,880) (domain or fragment)
FLIP in HeLa cells expressing R1441G LRRK2: half-time of fluorescence loss of GTD-mCherry over the region of interest against adjacent cytoplasm; dependent on kinase activity [1]: 107 s

B1: His6 Rab8A Q63L phosphorylated in vitro by Mst3 (natural protein)
chain: MAKTYDYLFKLLLIGDSGVGKTCVLFRFSEDAFNSTFISTIGIDFKIRTIELDGKRIKLQIWDTAGLERFRTITTAYYRGAMGIMLVYDITNEKSFDNIRNWIRNIEEHASADVEKMILGNKCDVNDKRQVSKERGEKLALDYGIKFMETSAKANINVENAFFTLARDIKAKMDKKLEGNSPQGSNQGVKITPDQQKRSSFFRCVLL
modifications: phosphorylated by Mst3 (residue not given)
Kd [3]: 6.6 µM
fold weaker binding than pRab10 [4]: ~14 fold

B2: His6 Rab8A Q63L, non-phosphorylated (natural protein)
chain: MAKTYDYLFKLLLIGDSGVGKTCVLFRFSEDAFNSTFISTIGIDFKIRTIELDGKRIKLQIWDTAGLERFRTITTAYYRGAMGIMLVYDITNEKSFDNIRNWIRNIEEHASADVEKMILGNKCDVNDKRQVSKERGEKLALDYGIKFMETSAKANINVENAFFTLARDIKAKMDKKLEGNSPQGSNQGVKITPDQQKRSSFFRCVLL
Kd [5]: > 29 µM

B3: His6 Rab10-Q63L (1–181), non-phosphorylated (domain or fragment)
chain: MAKKTYDLLFKLLLIGDSGVGKTCVLFRFSDDAFNTTFISTIGIDFKIKTVELQGKKIKLQIWDTAGLERFHTITTSYYRGAMGIMLVYDITNGKSFENISKWLRNIDEHANEDVERMLLGNKCDMDDKRVVPKGKGEQIAREHGIRFFETSAKANINIEKAFLTLAEDILRKTPVKEPNS
Kd [6]: > 18 µM
